The assay deals with T1, Ctc1 OB-A (residues 1-183) (Tetrahymena, UniProt A0PGB2 1-183).
T1 sequence (looked up): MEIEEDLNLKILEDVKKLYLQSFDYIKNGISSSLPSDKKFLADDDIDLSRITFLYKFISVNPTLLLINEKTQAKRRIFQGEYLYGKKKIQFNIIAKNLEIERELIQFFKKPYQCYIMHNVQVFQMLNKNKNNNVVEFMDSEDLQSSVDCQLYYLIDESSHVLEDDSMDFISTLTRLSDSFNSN
The experiment in a line: NMR titration.

The stoichiometry N is a count of units in the complex or per binding partner. With CQQDDFGDGCLLQIVNYTHQSLK (peptide, UniProt D2CVN8 228-250, looked up) [p50 peptide (residues 228-250)], the “stoichiometry N” value amounted to 1.

Values taken from article doi:10.1101/2021.12.28.474374 (bioRxiv, 2021).
